Here are results for eight molecules from patent publication EP2842965A1, “Neuromedin U analogs comprising serum albumin binding amino acid residue” (Gubra ApS, priority 2013, dated 2015).

Starred links: 1 amine or outer side, 2 acyl side, 3 side chain; linkers in the order of their positions; H or OH if unused. Residues, ends and D or L forms follow the SMILES beside them. Groups on a side chain read outwards from the residue. No end group written: not given here. *: point of attachment. γGlu = O=C(O)[C@H](CCC(=O)[*:2])N[*:1]; Palmitoyl = CCCCCCCCCCCCCCCC(=O)*

Assay [1] deals with T1, Neuromedin U receptor 2 (NMUR2) (Homo sapiens, UniProt Q9GZQ4).
T1 construct: expressed in transfected cells; host or cells: HEK293 cells, transient calcium phosphate transfection; the empty-vector control is pcDNA3
T1 sequence (Q9GZQ4 whole entry): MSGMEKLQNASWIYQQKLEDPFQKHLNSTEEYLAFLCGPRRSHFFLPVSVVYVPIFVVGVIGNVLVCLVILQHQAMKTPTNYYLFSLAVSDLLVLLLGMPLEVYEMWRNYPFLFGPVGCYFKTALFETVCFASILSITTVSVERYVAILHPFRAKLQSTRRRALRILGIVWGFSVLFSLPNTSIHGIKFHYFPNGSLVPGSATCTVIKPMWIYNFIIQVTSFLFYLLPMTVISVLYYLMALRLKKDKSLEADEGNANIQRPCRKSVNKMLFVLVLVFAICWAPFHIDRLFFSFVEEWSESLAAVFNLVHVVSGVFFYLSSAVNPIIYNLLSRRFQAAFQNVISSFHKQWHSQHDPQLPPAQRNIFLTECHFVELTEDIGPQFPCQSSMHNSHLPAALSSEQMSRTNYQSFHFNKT
Put plainly: Functional assay (IP3 SPA-ysi assay) in HEK293 cells transfected with NMUR2. The assay is classed as cell-based. The conditions noted are these: HEK293 cells transiently transfected with NMUR2; head says cAMP, method describes IP3 SPA readout. How it is done:
All compounds were dissolved in dimethyl sulfoxide (DMSO), and then water was added (total DMSO conc. was 80%). The stock concentration was 1 mM for all the compounds. Stocks were alliquoted and frozen -20°C.
The day before each assay a new standard row was prepared by dilution of the stock solution in assay buffer (1 mM acetic acid + 0.1% bovine serum albumin (BSA)). The following concentrations were prepared (depending on the ligand potency): 10^-5, 10^-6, 10^-7, 10^-7.5, 10^-8, 10^-8.5, 10^-9, 10^-10, 10^-11, 10^-12 M.
Cell cultures: The HEK293 cells are grown in (DMEM31966 glutamax supplemented with 10% FBS (fetal bovine serum) and 1% penicillin G and streptomycin) and incubated at 37°C with 10% CO2 in a humidified atmosphere. The cells were split as follows. HEK293 cells approximately 80% confluent was used. The cells were removed from the bottom of the bottle by removing the media (DMEM31966 glutamax supplemented with 10% FBS and 1% penicillin G and streptomycin), rinsed with 5 mL phosphate buffered saline (PBS) and shaken gently. The PBS was removed and cells were released from the bottom with trypsin (1-2 mL) and incubated for 2-3 min. The flasks were then turned gently to ensure complete release of the cells from the bottom. Then media was added to the cells, (5-8 mL was used to rinse the cells of the bottom, this process was repeated approximately 4 times using the same media). Cell suspension was then transferred to a new bottle (approximately 4 × 10^6 cells per 175 cm^2 flask) and 20 mL media was added. Cells were incubated at 37°C with 10% CO2 in a humidified atmosphere.
Transfection of cells: HEK293 cells were seeded out at the density of 8 × 10^6 cells per 175 cm^2 flask 1 day prior to the transfection. Before transfection of cells, the culture medium was aspirated and half of the standard volume was added. 40 µg receptor-containing plasmid (Neuromedin U receptor 1 (NMUR1) or Neuromedin U receptor 2 (NMUR2)) or "empty" vector plasmid (pcDNA3), as a negative control, was mixed with 60 µL […] CaCl2 and Tris-EDTA (TE) buffer (10 mM tris(hydroxymethyl)aminomethane hydrochloride (Tris HCl), 1 mM ethylenedinitrilotetraacetic acid (EDTA), pH 7.5) to a total volume of 480 µL. The mixture was added drop-wise to another tube containing 480 µL 2 × HEPES buffered saline (HBS buffer) (280 mM NaCl, 50 mM 4-(2-Hydroxyethyl)piperazine-1-ethanesulfonic acid (HEPES), 1.5 mM NaHPO4, pH 7.2) and left for 45 min at room temperature for DNA precipitation. Afterwards, the precipitate was added carefully to the cells and cells were incubated for 5 hours at normal culture conditions. The transfection was stopped by change of the DNA-containing medium with 20 mL of fresh cell culture medium.
Seeding of the cells in 96 well plates: One day after transfection, cells were harvested using trypsin as described above. The cells were seeded in a poly-D-lysine coated clear 96 well plate. 100 µL cell suspension 350.000 cells/mL was added. 3H-myo-inositol (5µL/mL) was added to each well yielding a concentration of 35000 cells/well. The cells were incubated overnight before assay procedure the following day.
IP3 SPA-ysi assay: The media was removed and the plates were washed with 200 µL of Hank's balanced salt solution (HBSS) (Gibco, Life Technologies). 100 µL of HBSS/10 mM LiCl was added and the plates were incubated 15 min at 37°C. 5 µL ligand was added to each well and the plate was incubated at 37°C for 70-90 min (incubation time was approximately 1 h and 16 min for all plates). The plates were placed on ice and 50 µL formic acid (10 mM) was added to each well. The plates was left on ice for at least 30 min. 20 µL was then transferred to a white 96 well plate and 80 µL yttrium silicate (YSi) SPA-beads RPNQ0010 (Perkin Elmer) solution (0.0125 g/mL) is added to each well. The plates were sealed and shaken on high speed for 30 min, then centrifuged for 5 min at 1500 rpm and counted with 8 hours delay in the top counter. […]

Assay [2] has as its target T2, Neuromedin U receptor 1 (UniProt Q9HB89 1-426, limits assumed).
T2 sequence (looked up): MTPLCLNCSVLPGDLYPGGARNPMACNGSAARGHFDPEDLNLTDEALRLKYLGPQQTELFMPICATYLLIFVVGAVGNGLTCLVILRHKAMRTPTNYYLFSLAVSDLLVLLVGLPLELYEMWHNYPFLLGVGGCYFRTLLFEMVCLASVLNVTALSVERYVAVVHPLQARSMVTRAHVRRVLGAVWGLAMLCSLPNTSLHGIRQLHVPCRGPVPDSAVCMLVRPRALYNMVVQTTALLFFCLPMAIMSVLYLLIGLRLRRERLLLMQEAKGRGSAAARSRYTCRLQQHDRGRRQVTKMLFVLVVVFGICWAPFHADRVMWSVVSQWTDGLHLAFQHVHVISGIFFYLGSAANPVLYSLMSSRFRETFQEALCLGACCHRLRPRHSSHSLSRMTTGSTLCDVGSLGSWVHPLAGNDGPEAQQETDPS
The experiment in a line: cell-based or functional assay.

As a reminder, the EC50 is the concentration needed to bring the measured effect to its halfway point. Turning to `CCCCCCCCCCCCCCCC(=O)N[C@@H](CCC(=O)NCCCC[C@H](NC(=O)[C@H](CCC(N)=O)NC(=O)[C@H](Cc1ccccc1)NC(=O)[C@H](CCC(=O)O)NC(=O)[C@H](CCC(=O)O)NC(=O)[C@H](CC(=O)O)NC(=O)[C@@H](NC(=O)[C@H](CCCNC(=N)N)NC(=O)[C@@H](N)Cc1ccccc1)C(C)C)C(=O)N1CCC[C@H]1C(=O)N[C@@H](Cc1ccccc1)C(=O)N[C@@H](C)C(=O)N[C@@H](CO)C(=O)N[C@@H](CCC(N)=O)C(=O)N[C@@H](CO)C(=O)N[C@@H](CCCNC(=N)N)C(=O)NCC(=O)N[C@@H](Cc1ccc(O)cc1)C(=O)N[C@@H](Cc1ccccc1)C(=O)N[C@@H](CC(C)C)C(=O)N[C@@H](Cc1ccccc1)C(=O)N[C@@H](CCCNC(=N)N)C(=O)N1CCC[C@H]1C(=O)N[C@@H](CCCNC(=N)N)C(=O)N[C@@H](CC(N)=O)C(N)=O)C(=O)O` [SEQ ID NO 11] (H-FRVDEEFQK([γGlu-Palmitoyl])PFASQSRGYFLFRPRN-NH2), a half-maximal effect in assay [1] (EC50) was put at 94.3 nM.

The molecule “H-FRVDEEFQSPFASQSRGYFLFRPRN-NH2 [Human NMU, reference compound]” came in with an EC50 in assay [1] of 4.26 nM.

Regarding FRVDEEFQSPFASQSRGYFLFRPRN-NH2 [Human neuromedin U], the “NMUR1 cAMP EC50” value in assay [2] was determined as 2.57 nM.

B1: SEQ ID NO 17 (NMU analog acylated at K4) (peptide)
peptide: FRVK([γGlu-Palmitoyl])EEFQSPFASQSRGYFLFRPRN-NH2
modifications: N-terminus assumed
SMILES: CCCCCCCCCCCCCCCC(=O)N[C@@H](CCC(=O)NCCCC[C@H](NC(=O)[C@@H](NC(=O)[C@H](CCCNC(=N)N)NC(=O)[C@@H](N)Cc1ccccc1)C(C)C)C(=O)N[C@@H](CCC(=O)O)C(=O)N[C@@H](CCC(=O)O)C(=O)N[C@@H](Cc1ccccc1)C(=O)N[C@@H](CCC(N)=O)C(=O)N[C@@H](CO)C(=O)N1CCC[C@H]1C(=O)N[C@@H](Cc1ccccc1)C(=O)N[C@@H](C)C(=O)N[C@@H](CO)C(=O)N[C@@H](CCC(N)=O)C(=O)N[C@@H](CO)C(=O)N[C@@H](CCCNC(=N)N)C(=O)NCC(=O)N[C@@H](Cc1ccc(O)cc1)C(=O)N[C@@H](Cc1ccccc1)C(=O)N[C@@H](CC(C)C)C(=O)N[C@@H](Cc1ccccc1)C(=O)N[C@@H](CCCNC(=N)N)C(=O)N1CCC[C@H]1C(=O)N[C@@H](CCCNC(=N)N)C(=O)N[C@@H](CC(N)=O)C(N)=O)C(=O)O
With B1, the “NMUR1 cAMP EC50” value in assay [2] worked out at 45.5 nM.

B2: SEQ ID NO 14 (NMU analog acylated at K6) (peptide)
peptide: FRVDEK([γGlu-Palmitoyl])FQSPFASQSRGYFLFRPRN-NH2
modifications: N-terminus assumed
SMILES: CCCCCCCCCCCCCCCC(=O)N[C@@H](CCC(=O)NCCCC[C@H](NC(=O)[C@H](CCC(=O)O)NC(=O)[C@H](CC(=O)O)NC(=O)[C@@H](NC(=O)[C@H](CCCNC(=N)N)NC(=O)[C@@H](N)Cc1ccccc1)C(C)C)C(=O)N[C@@H](Cc1ccccc1)C(=O)N[C@@H](CCC(N)=O)C(=O)N[C@@H](CO)C(=O)N1CCC[C@H]1C(=O)N[C@@H](Cc1ccccc1)C(=O)N[C@@H](C)C(=O)N[C@@H](CO)C(=O)N[C@@H](CCC(N)=O)C(=O)N[C@@H](CO)C(=O)N[C@@H](CCCNC(=N)N)C(=O)NCC(=O)N[C@@H](Cc1ccc(O)cc1)C(=O)N[C@@H](Cc1ccccc1)C(=O)N[C@@H](CC(C)C)C(=O)N[C@@H](Cc1ccccc1)C(=O)N[C@@H](CCCNC(=N)N)C(=O)N1CCC[C@H]1C(=O)N[C@@H](CCCNC(=N)N)C(=O)N[C@@H](CC(N)=O)C(N)=O)C(=O)O
On to B2, for which the “NMUR1 cAMP EC50” value in assay [2] was determined as 51.5 nM.

B3: SEQ ID NO 8 (NMU analog acylated at K13) (peptide)
peptide: FRVDEEFQSPFAK([γGlu-Palmitoyl])QSRGYFLFRPRN-NH2
modifications: N-terminus assumed
SMILES: CCCCCCCCCCCCCCCC(=O)N[C@@H](CCC(=O)NCCCC[C@H](NC(=O)[C@H](C)NC(=O)[C@H](Cc1ccccc1)NC(=O)[C@@H]1CCCN1C(=O)[C@H](CO)NC(=O)[C@H](CCC(N)=O)NC(=O)[C@H](Cc1ccccc1)NC(=O)[C@H](CCC(=O)O)NC(=O)[C@H](CCC(=O)O)NC(=O)[C@H](CC(=O)O)NC(=O)[C@@H](NC(=O)[C@H](CCCNC(=N)N)NC(=O)[C@@H](N)Cc1ccccc1)C(C)C)C(=O)N[C@@H](CCC(N)=O)C(=O)N[C@@H](CO)C(=O)N[C@@H](CCCNC(=N)N)C(=O)NCC(=O)N[C@@H](Cc1ccc(O)cc1)C(=O)N[C@@H](Cc1ccccc1)C(=O)N[C@@H](CC(C)C)C(=O)N[C@@H](Cc1ccccc1)C(=O)N[C@@H](CCCNC(=N)N)C(=O)N1CCC[C@H]1C(=O)N[C@@H](CCCNC(=N)N)C(=O)N[C@@H](CC(N)=O)C(N)=O)C(=O)O
For B3, in assay [2], the “NMUR1 cAMP EC50” value is 114 nM.

B4: SEQ ID NO 5 (NMU analog acylated at K15) (peptide)
peptide: FRVDEEFQSPFASQK([γGlu-Palmitoyl])RGYFLFRPRN-NH2
modifications: N-terminus assumed
SMILES: CCCCCCCCCCCCCCCC(=O)N[C@@H](CCC(=O)NCCCC[C@H](NC(=O)[C@H](CCC(N)=O)NC(=O)[C@H](CO)NC(=O)[C@H](C)NC(=O)[C@H](Cc1ccccc1)NC(=O)[C@@H]1CCCN1C(=O)[C@H](CO)NC(=O)[C@H](CCC(N)=O)NC(=O)[C@H](Cc1ccccc1)NC(=O)[C@H](CCC(=O)O)NC(=O)[C@H](CCC(=O)O)NC(=O)[C@H](CC(=O)O)NC(=O)[C@@H](NC(=O)[C@H](CCCNC(=N)N)NC(=O)[C@@H](N)Cc1ccccc1)C(C)C)C(=O)N[C@@H](CCCNC(=N)N)C(=O)NCC(=O)N[C@@H](Cc1ccc(O)cc1)C(=O)N[C@@H](Cc1ccccc1)C(=O)N[C@@H](CC(C)C)C(=O)N[C@@H](Cc1ccccc1)C(=O)N[C@@H](CCCNC(=N)N)C(=O)N1CCC[C@H]1C(=O)N[C@@H](CCCNC(=N)N)C(=O)N[C@@H](CC(N)=O)C(N)=O)C(=O)O
In the case of B4, the “NMUR1 cAMP EC50” value in assay [2] was found to be 195 nM.

B5: SEQ ID NO 11 (NMU analog acylated at K9) (peptide)
peptide: FRVDEEFQK([γGlu-Palmitoyl])PFASQSRGYFLFRPRN-NH2
modifications: N-terminus assumed
SMILES: CCCCCCCCCCCCCCCC(=O)N[C@@H](CCC(=O)NCCCC[C@H](NC(=O)[C@H](CCC(N)=O)NC(=O)[C@H](Cc1ccccc1)NC(=O)[C@H](CCC(=O)O)NC(=O)[C@H](CCC(=O)O)NC(=O)[C@H](CC(=O)O)NC(=O)[C@@H](NC(=O)[C@H](CCCNC(=N)N)NC(=O)[C@@H](N)Cc1ccccc1)C(C)C)C(=O)N1CCC[C@H]1C(=O)N[C@@H](Cc1ccccc1)C(=O)N[C@@H](C)C(=O)N[C@@H](CO)C(=O)N[C@@H](CCC(N)=O)C(=O)N[C@@H](CO)C(=O)N[C@@H](CCCNC(=N)N)C(=O)NCC(=O)N[C@@H](Cc1ccc(O)cc1)C(=O)N[C@@H](Cc1ccccc1)C(=O)N[C@@H](CC(C)C)C(=O)N[C@@H](Cc1ccccc1)C(=O)N[C@@H](CCCNC(=N)N)C(=O)N1CCC[C@H]1C(=O)N[C@@H](CCCNC(=N)N)C(=O)N[C@@H](CC(N)=O)C(N)=O)C(=O)O
As to B5, the “NMUR1 cAMP EC50” value in assay [2] came out at 74 nM.
